Data on 2 molecules can be found in US20210139548A1 (published 2021).

In this assay the target is T1, human neuropeptide Y2 receptor (human, UniProt P49146 1-381).
T1 construct: whole, on cells; also called hNPY2 receptor; hNPY2-R
T1 sequence (looked up): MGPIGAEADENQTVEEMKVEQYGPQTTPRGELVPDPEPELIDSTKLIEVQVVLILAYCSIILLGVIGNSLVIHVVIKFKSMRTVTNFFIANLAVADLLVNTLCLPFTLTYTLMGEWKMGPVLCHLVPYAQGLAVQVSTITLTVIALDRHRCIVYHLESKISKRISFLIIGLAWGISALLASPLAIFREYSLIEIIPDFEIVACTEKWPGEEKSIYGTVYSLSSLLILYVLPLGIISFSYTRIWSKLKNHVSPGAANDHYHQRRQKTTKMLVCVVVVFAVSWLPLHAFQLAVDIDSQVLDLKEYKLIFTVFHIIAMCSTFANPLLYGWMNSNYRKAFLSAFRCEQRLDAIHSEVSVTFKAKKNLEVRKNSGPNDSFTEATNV
Description: radioligand competition (125I-PYY(1-36)), hNPY2R membranes. In outline: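 Commercial human Y2 receptor membranes (0.5 μg protein/well) were incubated with peptide for 2 h at room temperature in 50 mM HEPES, 5 mM MgCl₂, 1 mM CaCl₂, pH 7.4, with 0.2% ovalbumin. Bound radioligand was separated on PEI-soaked GF/C filters and counted by scintillation, and IC₅₀ came from nonlinear sigmoidal regression.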
(In general: Displacement assays read how much labelled ligand stays bound in the presence of the test substance.)

*1 amine or outer side, *2 acyl side, *3 side chain or, on linkers, in order; H or OH if unused. Side-chain parts run from the residue outwards. The star is where a group is joined. C18 diacid = O=C(O)CCCCCCCCCCCCCCCCC(=O)*; γGlu = O=C(O)[C@H](CCC(=O)[*:2])N[*:1]; Isovaleryl = CC(C)CC(=O)*; AEEA = NCCOCCOCC(=O)O

B1: Compound 192 (peptide)
peptide: Isovaleryl-APEK([AEEA-AEEA-γGlu-C18 diacid])PEEDAAPAELQRYYVSLRHYYNWLTRQRY-NH2
SMILES: CC(C)CC(=O)N[C@@H](C)C(=O)N1CCC[C@H]1C(=O)N[C@@H](CCC(=O)O)C(=O)N[C@@H](CCCCNC(=O)COCCOCCNC(=O)COCCOCCNC(=O)CC[C@H](NC(=O)CCCCCCCCCCCCCCCCC(=O)O)C(=O)O)C(=O)N1CCC[C@H]1C(=O)N[C@@H](CCC(=O)O)C(=O)N[C@@H](CCC(=O)O)C(=O)N[C@@H](CC(=O)O)C(=O)N[C@@H](C)C(=O)N[C@@H](C)C(=O)N1CCC[C@H]1C(=O)N[C@@H](C)C(=O)N[C@@H](CCC(=O)O)C(=O)N[C@@H](CC(C)C)C(=O)N[C@@H](CCC(N)=O)C(=O)N[C@@H](CCCNC(=N)N)C(=O)N[C@@H](Cc1ccc(O)cc1)C(=O)N[C@@H](Cc1ccc(O)cc1)C(=O)N[C@H](C(=O)N[C@@H](CO)C(=O)N[C@@H](CC(C)C)C(=O)N[C@@H](CCCNC(=N)N)C(=O)N[C@@H](Cc1c[nH]cn1)C(=O)N[C@@H](Cc1ccc(O)cc1)C(=O)N[C@@H](Cc1ccc(O)cc1)C(=O)N[C@@H](CC(N)=O)C(=O)N[C@@H](Cc1c[nH]c2ccccc12)C(=O)N[C@@H](CC(C)C)C(=O)N[C@H](C(=O)N[C@@H](CCCNC(=N)N)C(=O)N[C@@H](CCC(N)=O)C(=O)N[C@@H](CCCNC(=N)N)C(=O)N[C@@H](Cc1ccc(O)cc1)C(N)=O)[C@@H](C)O)C(C)C
For the molecule B1, the Ki (in general, a dissociation constant, usually derived from enzyme kinetics or from competition with a known ligand) came to 1.65 nM.

B2: Compound 193 (peptide)
peptide: Isovaleryl-APEK([AEEA-AEEA-γGlu-C18 diacid])PEEDASEEEIQRYYVSLRHYYNWLTRQRY-NH2
SMILES: CC[C@H](C)[C@H](NC(=O)[C@H](CCC(=O)O)NC(=O)[C@H](CCC(=O)O)NC(=O)[C@H](CCC(=O)O)NC(=O)[C@H](CO)NC(=O)[C@H](C)NC(=O)[C@H](CC(=O)O)NC(=O)[C@H](CCC(=O)O)NC(=O)[C@H](CCC(=O)O)NC(=O)[C@@H]1CCCN1C(=O)[C@H](CCCCNC(=O)COCCOCCNC(=O)COCCOCCNC(=O)CC[C@H](NC(=O)CCCCCCCCCCCCCCCCC(=O)O)C(=O)O)NC(=O)[C@H](CCC(=O)O)NC(=O)[C@@H]1CCCN1C(=O)[C@H](C)NC(=O)CC(C)C)C(=O)N[C@@H](CCC(N)=O)C(=O)N[C@@H](CCCNC(=N)N)C(=O)N[C@@H](Cc1ccc(O)cc1)C(=O)N[C@@H](Cc1ccc(O)cc1)C(=O)N[C@H](C(=O)N[C@@H](CO)C(=O)N[C@@H](CC(C)C)C(=O)N[C@@H](CCCNC(=N)N)C(=O)N[C@@H](Cc1c[nH]cn1)C(=O)N[C@@H](Cc1ccc(O)cc1)C(=O)N[C@@H](Cc1ccc(O)cc1)C(=O)N[C@@H](CC(N)=O)C(=O)N[C@@H](Cc1c[nH]c2ccccc12)C(=O)N[C@@H](CC(C)C)C(=O)N[C@H](C(=O)N[C@@H](CCCNC(=N)N)C(=O)N[C@@H](CCC(N)=O)C(=O)N[C@@H](CCCNC(=N)N)C(=O)N[C@@H](Cc1ccc(O)cc1)C(N)=O)[C@@H](C)O)C(C)C
In turn, B2 showed a Ki of 3.81 nM.
